Results taken from patent US20050058645A1 (ZENYTH OPERATIONS, published 2005).

Legend:
[1] = biological target: T1, chimeric human IL-13Rα1-Fc (human, UniProt P78552 22-343); experiment: ELISA; 1D9 dose-response, inhibition of chimeric human IL-13Rα1-Fc binding to plate bound IL-13; ELISA dose-response; inhibition of chimeric human IL-13Rα1-Fc binding to IL-13
T1 construct: Bought (R & D Systems); Extracellular domain of IL-13Rα1 fused to Fc of human IgG; Expressed as preformed disulphide-bonded dimer; also called hIL-13Rα1-Fc; chimeric human receptor; not shown: Fc portion of human IgG
T1 sequence: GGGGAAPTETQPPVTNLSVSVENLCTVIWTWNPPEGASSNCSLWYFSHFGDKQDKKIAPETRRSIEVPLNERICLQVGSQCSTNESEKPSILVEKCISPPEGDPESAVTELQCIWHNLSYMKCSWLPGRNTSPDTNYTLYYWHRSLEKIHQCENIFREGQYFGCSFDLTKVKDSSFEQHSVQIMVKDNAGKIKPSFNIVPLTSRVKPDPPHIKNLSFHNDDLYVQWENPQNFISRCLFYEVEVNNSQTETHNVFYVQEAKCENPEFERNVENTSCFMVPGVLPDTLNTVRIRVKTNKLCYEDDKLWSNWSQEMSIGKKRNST
Experimental: (§1) Initially mouse mAb 1D9 is tested for its ability to inhibit the interaction of the chimeric human and mouse IL-13Rα1-Fc with IL-13 using both an ELISA- and Biosensor-based approach. […] Identical results are obtained with the ELISA-based assay. 1D9 is a potent inhibitor of the chimeric human receptor, compared with a control mAb, but has no effect on the binding of the chimeric mouse receptor to mouse IL-13 (FIG. 6). The Biosensor study incorporated a 1D9 dose-response analysis and a further dose-response analysis was undertaken using the ELISA.

mouse IL-13Rα1 = biological target: T2, mouse IL-13Rα1 (mouse, UniProt O09030 26-340, limits assumed); experiment: Western blot
T2 sequence (looked up): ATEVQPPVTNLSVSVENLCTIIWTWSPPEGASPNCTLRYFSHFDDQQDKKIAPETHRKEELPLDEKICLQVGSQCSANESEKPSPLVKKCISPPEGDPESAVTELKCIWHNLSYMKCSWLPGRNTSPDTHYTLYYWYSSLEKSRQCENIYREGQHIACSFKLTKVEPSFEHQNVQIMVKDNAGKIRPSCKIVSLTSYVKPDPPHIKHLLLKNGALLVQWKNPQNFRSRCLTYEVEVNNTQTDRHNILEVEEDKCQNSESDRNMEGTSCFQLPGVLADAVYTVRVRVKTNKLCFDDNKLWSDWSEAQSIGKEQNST

[2] = biological target: T3, FLAG-tagged IL-13Rα1-gp130 chimeric receptor (human); experiment: Western blot of lysates of transfected COS cells after SDS-PAGE, probed with mAb 1D9
T3 construct: Extracellular domain of human IL-13Rα1 fused to transmembrane and cytoplasmic domains of gp130; On 293A12-derived cells (lines 3.1.2, 3.2.4) in the reporter assay; in COS cell lysates in the Western blot; also called IL-13Rα1-gp130 fusion; IL13Rα1/gp130 chimera
T3 chain: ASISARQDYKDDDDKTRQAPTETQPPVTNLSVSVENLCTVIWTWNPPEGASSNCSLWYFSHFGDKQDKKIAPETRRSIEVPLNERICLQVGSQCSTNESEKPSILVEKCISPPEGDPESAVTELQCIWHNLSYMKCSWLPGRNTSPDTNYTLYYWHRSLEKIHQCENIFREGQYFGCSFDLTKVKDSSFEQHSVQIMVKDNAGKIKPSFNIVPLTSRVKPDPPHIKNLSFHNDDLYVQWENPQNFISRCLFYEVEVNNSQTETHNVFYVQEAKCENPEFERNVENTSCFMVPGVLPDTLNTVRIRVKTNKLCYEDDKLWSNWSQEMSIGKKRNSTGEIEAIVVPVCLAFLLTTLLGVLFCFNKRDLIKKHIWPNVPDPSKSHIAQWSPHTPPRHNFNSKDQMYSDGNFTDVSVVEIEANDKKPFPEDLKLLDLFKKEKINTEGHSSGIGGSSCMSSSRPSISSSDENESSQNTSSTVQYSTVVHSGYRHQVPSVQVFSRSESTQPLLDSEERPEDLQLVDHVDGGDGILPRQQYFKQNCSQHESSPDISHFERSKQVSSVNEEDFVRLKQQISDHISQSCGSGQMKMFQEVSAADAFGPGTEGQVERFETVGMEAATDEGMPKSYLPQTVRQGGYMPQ
Description: FIG. 3 is a photographic representation showing transient expression of chimeric receptor constructs in COS cells. COS cells were transfected with pEFBOS encoding FLAG-tagged IL-13Rα1-gp130, FLAG-tagged IL-4Rα-gp130 (two independent clones) or control β-gal. Cell lysates were recovered at 72 hrs and after SDS-PAGE and Western transfer, probed with either an anti-FLAG antibody or the IL-13Rα1-specific mAb 1D9.

[3] = biological target: T1, chimeric human IL-13Rα1-Fc; experiment: Biosensor blocking assay: human IL-13Rα1-Fc at 2 ug/ml pre-incubated 1 hour with titrated 1D9, then passed over immobilised human IL-13 (the blocked ligand)
Experimental: as §1

[4] = biological target: T4, chimeric mouse IL-13Rα1-Fc (mouse; human, UniProt O09030 26-340); experiment: Biosensor blocking assay: mouse IL-13Rα1-Fc at 2 ug/ml pre-incubated 1 hour with titrated 1D9, then passed over immobilised IL-13
T4 construct: extracellular domain; Bought (R & D Systems); Preformed disulphide-bonded dimer; also called mIL-13Rα1-Fc; chimeric mouse receptor; not shown: Fc portion of human IgG
T4 sequence (looked up): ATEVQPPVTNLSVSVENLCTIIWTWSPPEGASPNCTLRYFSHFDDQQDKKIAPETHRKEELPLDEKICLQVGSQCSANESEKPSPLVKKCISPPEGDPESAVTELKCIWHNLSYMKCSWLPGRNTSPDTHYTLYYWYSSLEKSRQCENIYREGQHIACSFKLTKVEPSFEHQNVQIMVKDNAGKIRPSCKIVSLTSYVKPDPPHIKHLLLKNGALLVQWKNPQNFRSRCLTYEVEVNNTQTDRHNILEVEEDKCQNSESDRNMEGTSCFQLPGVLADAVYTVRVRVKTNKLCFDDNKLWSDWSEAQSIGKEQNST
Experimental: as §1

B1: murine monoclonal antibody 1D9 (antibody, IgG1, V domains shown)
VH: EVKLVESGGGLVKPGGSLKLSCAASGFTFSGYGMSWVRQTPEKRLEWVATISGLGGYTYYPDSVKGRFTISRDNAKNTLYLQMSSLRSDDTAFYYCARRFYGDYVGAMDYWGQGTSVTVSS
VL: DILMTQAAFSNPVTLGTSASISCRSSKSLLHSNGITYLYWYLQKPGQSPQLLIYQMSNLASGVPDRFSCSGSGTDFTLSISRVEAEDVGFYYCAQNLELPFTFGSGTKLEIE
notes: Murine hybridoma antibody (ECACC 03032101); also called mAb 1D9; mouse mAb 1D9
With B1 the IC50 [1] was about 20 nM, the binding result (mouse IL-13Rα1) was “no binding” and the binding result [2] was “binds”. For the same binder, the “IC50 (read off the curve)” value [3] was about 2 µg/mL and the binding result [4] was “no binding (tested: about 50 µg/ml)”.
